From patent publication US20230037911A1 (SHANGHAI HENLIUS BIOTECH, published 2023) come the findings set out here.

Positions count from the first letter of the chain named.

T1: recombinant protein of his-tagged human TIGIT ECD (human, UniProt Q495A1 22-138)
T1 construct: Used in Octet assays; also called h-TIGIT ECD (his-tagged); not shown: his tag
T1 sequence: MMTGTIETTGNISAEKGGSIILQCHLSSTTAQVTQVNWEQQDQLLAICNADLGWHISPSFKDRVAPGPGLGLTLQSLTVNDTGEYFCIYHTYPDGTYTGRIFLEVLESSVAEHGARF

T2: recombinant human TIGIT extra cellular domain (ECD) protein (human, UniProt Q495A1 22-138)
T2 construct: Purchased protein; it begins with the signal peptide; also called h-TIGIT ECD; human TIGIT ECD
T2 sequence: T1 sequence

T3: human TIGIT stably expressed on cells (Jurkat; 293T) (human, UniProt Q495A1 22-244)
T3 construct: the expression vector's insert is not described further; also called h-TIGIT; human TIGIT transfected Jurkat cells
T3 sequence: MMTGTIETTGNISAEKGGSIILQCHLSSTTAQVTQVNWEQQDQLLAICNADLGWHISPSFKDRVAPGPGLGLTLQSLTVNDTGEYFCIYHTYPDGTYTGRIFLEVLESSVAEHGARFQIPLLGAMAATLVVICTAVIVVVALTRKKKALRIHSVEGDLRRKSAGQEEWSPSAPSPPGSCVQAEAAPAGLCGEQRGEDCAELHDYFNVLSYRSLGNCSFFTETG

B1: anti-TIGIT x anti-PDL1 bispecific antibody LCN (VHH 2A3 fused to the N-terminal of the anti-PDL1 light chain) (bispecific antibody, human IgG1, lambda)
heavy: not shown
light: QVQLVESGGGVVQPGRSLRLSCAASGGSFSSYPMGWFRQAPGKERESVAAISSDMRFTYYADSVKGRFTISRDNSKNTLYLQMNSLRAEDTAVYYCAARDSGVGYYSRAQWYDYWGQGTLVTVSSGSGGSGGSGGSGQSVVTQPPPVSGAPGQRVTISCTGSSSNVGAGYDVHWYQQLPGTAPKLLIYGNSQRSSGVPDRFSGSKSGTSASLAITGLQAEDEADYYCQTYDSSGSARVVFGGGTKLTVLGQPKAAPSVTLFPPSSEELQANKATLVCLISDFYPGAVTVAWKADSSPVKAGVETTTPSKQSNNKYAASSYLSLTPEQWKSHKSYSCQVTHEGSTVEKTVAPTECS
notes: also called aTIGITx aPDL1-LCN
B2: anti-TIGIT x anti-PDL1 bispecific antibody LCC (VHH 2A3 fused to the C-terminal of the anti-PDL1 light chain) (bispecific antibody, human IgG1, lambda)
heavy: not shown
light: QSVVTQPPPVSGAPGQRVTISCTGSSSNVGAGYDVHWYQQLPGTAPKLLIYGNSQRSSGVPDRFSGSKSGTSASLAITGLQAEDEADYYCQTYDSSGSARVVFGGGTKLTVLGQPKAAPSVTLFPPSSEELQANKATLVCLISDFYPGAVTVAWKADSSPVKAGVETTTPSKQSNNKYAASSYLSLTPEQWKSHKSYSCQVTHEGSTVEKTVAPTECSGSGGSGGSGGSGQVQLVESGGGVVQPGRSLRLSCAASGGSFSSYPMGWFRQAPGKERESVAAISSDMRFTYYADSVKGRFTISRDNSKNTLYLQMNSLRAEDTAVYYCAARDSGVGYYSRAQWYDYWGQGTLVTVSS
notes: likely a printing error; also called aTIGITx aPDL1-LCC
B3: anti-TIGIT x anti-PDL1 bispecific antibody HCC (VHH 2A3 fused to the C-terminal of the anti-PDL1 heavy chain) (bispecific antibody, human IgG1, lambda)
heavy: not shown
light: QSVVTQPPPVSGAPGQRVTISCTGSSSNVGAGYDVHWYQQLPGTAPKLLIYGNSQRSSGVPDRFSGSKSGTSASLAITGLQAEDEADYYCQTYDSSGSARVVFGGGTKLTVLGQPKAAPSVTLFPPSSEELQANKATLVCLISDFYPGAVTVAWKADSSPVKAGVETTTPSKQSNNKYAASSYLSLTPEQWKSHKSYSCQVTHEGSTVEKTVAPTECS
notes: also called aTIGITx aPDL1-HCC; BsAb HCC
B4: anti-TIGIT x anti-PDL1 bispecific antibody HCN (VHH 2A3 fused to the N-terminal of the anti-PDL1 heavy chain) (bispecific antibody, human IgG1, lambda)
heavy: not shown
light: B3 light
notes: also called aTIGITx aPDL1-HCN; BsAb HCN
B5: 3H7 VHH (VHH)
VHH: QVKLEESGGGLVQAGGSLRLSCAASGSILSAGVMRWYRQAPGKQRELVASIALDGSTGYYIDSVKGRFTISRDNAKNIVYLDMRSLEPADTAVYLCNANIRTDMRSAPFDHWGHGTQVTVSS
notes: VHH in bacterial supernatant
B6: 12H7 VHH (VHH)
VHH: QVQLVDSGGGLVQAGGSLRLSCKVSGNFLSVSDMSWYRQAPGMERDVVATVTEHGRTTYTDSVKGRFTISRDNAEHTTYLEMNNLKPEDTAVYFCKASDVFTDAGAHEAVLIRDYWGQGTQVTVSS
notes: VHH in bacterial supernatant
B7: 4C5 VHH (VHH)
VHH: QVQLVDSGGGLVQAGGSLRLSCAVSGRSVSTYFVGWFRQAPGKEREFVAAIDRGSTVTRYDDSVKGRFTISRDNAKDTVYLQMNSLKPEDTAVYYCAAKAITRNFIATNDYDYWGQGTQVTVSS
notes: VHH in bacterial supernatant
B8: 4C6 VHH (VHH)
VHH: QVQLVESGGGLVQAGGSLRLACAASGRTFSSYPMGWFRQGPGKERESVAAISSDGRFTYYAASVKGRFTISKDNAKSAAFLQMNSLKPEDTAVYRCAVDPTGWGTIEADFRSWGQGTQVTVSS
notes: VHH in bacterial supernatant
B9: 4H9 VHH (VHH)
VHH: QVQLVESGGGAVQAGGSLRLSCTASGPIARSRSTGMGWFRQGPGKERESVAAISSDGRFTYYAASVKGRFTISKDNAKSAAFLQMNSLKPEDTAVYYCAARDSGSGYYSRAQWYDYWGQGTQVTVSS
notes: VHH in bacterial supernatant
B10: 4B5 VHH (VHH)
VHH: QVKLEESGGRSVLAGGSLRLRCAGTPRTFSTFHIGWFRQAPGKEREFVAAFNWSGGRTYYADSVKGRFTISRNNGKNMVYLQMTSLTPEDTGLYYCAAARDRGLHDGTTSDSYLEGSHEYEYWGQGTQVTVSS
notes: VHH in bacterial supernatant
B11: 4D5 VHH (VHH)
VHH: VDSGGGAVKAGDSLRLVCSAPGRTHGRAFNEYAMAWFRQGPGKERESVAAISSDGRFTYYAASVKGRFTISKDNAKSAAFLQMNSLKPEDTAVYYCAARDSGSGYYSRAQWYDYWGQGTQVTVSS
notes: VHH in bacterial supernatant
B12: 4H6 VHH (VHH)
VHH: QVQLVESGGGLATAGASLILSCAASGTIFRLNRMGWFRQAPGKERERVAATIWSGRRTHYADSVKGRFTISTDNAKKTVYLRMSSLKPEDTAVYYCNYRRITPWEASGNYWGQGTQVTVSS
notes: VHH in bacterial supernatant
B13: 4E5 VHH (VHH)
VHH: QVQLVDSGGGVVEVGASLTLSCETSGLTSSDIAVGWFRQGPGKERESVAAISSDGRFTYYAASVKGRFTISKDNAKSAAFLQMNSLKPEDTAVYYCAARDSGSGYYSRAQWYDYWGQGTQVTVSS
notes: VHH in bacterial supernatant
B14: 4D11 VHH (VHH)
VHH: QVQLQESGGGLVQPGGSLRLSCAASGSISSINAMGWYRLAPGKHREFVADITNSGSTNYAASVKGRFNISRDNAKDTVYLQMNSLKFEDTAVYYCTARRSTWYISSGRGTQVTVSS
notes: VHH in bacterial supernatant
B15: 2B10 VHH (VHH)
VHH: QVKLEESGGGLVQTGDSLRLSCAASSRIFRRYAMGWFRQAPGKEREFVAAITWSGASTTYTDSVKGRFTISRDSAENTTYLQMTSLRPEDTAVYYCAADPWGSVIVGTAEYEYWGQGTLVTVSS
notes: VHH in bacterial supernatant
B16: 1C12 VHH (VHH)
VHH: QVQLVESGGGLVQTGDSLRLSCAASSRIFSRYGMGWFRQAPGKEREFVAAISWNGASTTYTDSVKGRFTISRDSAENTTYLQINSLRPEDTAVYYCAADPWGAVKLGTAEYEYWGQGTQVTVSS
notes: VHH in bacterial supernatant
B17: 3G7 VHH (VHH)
VHH: QVQLVESGGGLVQAGDSLRLSCEASGRTLSTYTMGWFRRAPGKEREFVGLAWPSPSTYVVDSVKGRFTISRDNAKNTIYLQMNSLKPEDTAIYYCAADYKSLTQSWLNAALDYWGQGTQVTVSS
notes: VHH in bacterial supernatant
B18: 3G6 VHH (VHH)
VHH: QVQLVESGGGLVQAGGSLSLSCAASGSIFGISVMGWYRQAPGEQRDLVATLTRAGLTTYGDSVKGRFSISRDSAKNTVYLQMNNLKPEDTAVYYCHANIMESAASTFGRYWGQGTQVTVSS
notes: VHH in bacterial supernatant
B19: 15A5 VHH (VHH)
VHH: QVQLVESGGGLVQAGGSLRLSCAASERTFSSFAMGWFRQAPGKEREVVAAIDPSGRYIYYKDSVKGRFTMSRDNAKSTVYLQMNSLKPDDTARYYCAARIRGEGYYTRSSFYHYWGQGTQVTVSS
notes: VHH in bacterial supernatant
B20: 13H11 VHH (VHH)
VHH: QVQLVESGGGLVQAGGSLRLSCAASGLTFSMYAMGWFRQGPGKERESVAAISSDGRFTYYAASVKGRFTISKDNAKSAAFLQMNSLKPEDTAVYYCAARDSGSGYYSRAQWYDYWGQGTQVTVSS
notes: VHH in bacterial supernatant
B21: 1G1 VHH (VHH)
VHH: B20 VHH with G16D, A23V, L27P, T28S, M31S, A33P, Q120L
notes: VHH in bacterial supernatant
B22: 2B7 VHH (VHH)
VHH: B20 VHH with S21A, L27R, M31S, A33P
notes: VHH in bacterial supernatant
B23: 3F10 VHH (VHH)
VHH: QVQLVESGGGLVQAGGSLRLSCASSEHTFSNFPMGWFRQAPGKERNVVAAIDSSGRLTYYADSVKGRFTISKDNAKSTVYLQMNSLKSEDTARYYCAARTGGVGYYSRSSFYNYWGQGTLVTVSS
notes: VHH in bacterial supernatant

The target in the first assay is T1, recombinant protein of his-tagged human …. The experiment in a line: Octet biolayer interferometry; BsAb loaded on the sensor, his-tagged h-TIGIT ECD at different concentrations (not given), then h-PDL1 ECD. As to the method:
The sensors were loaded with BsAbs and then injected with different concentrations of recombinant protein of h-TIGIT ECD (his-tagged). After association of BsAbs with h-TIGIT, the sensors were injected again with different concentrations of recombinant protein of h-PDL1 ECD (his-tagged). […] Y axis represents association/disassociation and Rmax, X axis represents time in second.
A general note: In BLI a coated tip is dipped into the sample, and binding shifts an interference pattern.
For B1, the binding result is “binds”. On the same count and under the same terms, under B2 stands “binds”; under B3, “binds”. Take B4: the binding result was “binds”.

For the next assay, the target named is T2, recombinant human TIGIT extra cellular …. The experiment in a line: ELISA, VHH in supernatant on h-TIGIT ECD coated plates. Background: In an ELISA, binding on a coated surface is turned into a signal by an enzyme label.
On to B5, for which the binding result is “binds”. On to B6, for which the binding result is “binds”. On the same count and under the same terms, as for B7, the entry is “binds”; as for B8, “binds”.

As to B9, the binding result is recorded as “binds”.

For B10, the binding result is recorded as “binds”. Still for that read-out and setting: under B11 stands “binds”; under B12, “binds”; under B13, “binds”. The same measure, in the same setting: as for B14, the entry is “binds”.

A further assay shares this target. The experiment in a line: blocking ELISA, PVR as competitor.
Consider B15, for which the “inhibition of PVR binding to h-TIGIT” value is more than 90%. The same measure, in the same setting: as for B16, the figure is more than 90%. Still for that read-out and setting: under B17 stands more than 90%; under B18, more than 90%.

As to B19, the “inhibition of PVR binding to h-TIGIT” value is more than 90%. In the case of B20, the “inhibition of PVR binding to h-TIGIT” value is more than 90%. The same measure, in the same setting: as for B21, the figure is more than 90%. As to B22, the “inhibition of PVR binding to h-TIGIT” value is more than 90%. The same measure, in the same setting: under B23 stands more than 90%.

The target in a further assay is T3, human TIGIT stably expressed on cells …. The experiment in a line: flow cytometry on h-TIGIT stably transfected Jurkat cells; anti-h-IgG Fc AlexaFluor488 secondary. (In general: Flow cytometry measures light scatter and fluorescence of single cells or particles in a stream.)
As for B1, the binding result is recorded as “binds”. Same read-out and setting: under B2 stands “binds”. For the molecule B3, the binding result is recorded as “binds”. Regarding B4, the binding result was “binds”.
